# In article PMC4776142, “Comparative evaluation of p5+14 with SAP and peptide p5 by dual-energy SPECT imaging of mice with AA amyloidosis” (Scientific Reports, 2016):
# Legend:
# [1] = target: T1, AA amyloid in H2/IL-6 mice (Mus musculus, UniProt P05367); assay: Dual-energy tissue biodistribution of 125I-SAP and 99mTc-p5+14 in AA mice; type: in vivo
# T1 construct: Systemic distribution of AA amyloid in H2/IL-6 mice; from tissue; host or cells: organs of living H2/IL-6 Balb/c mice after induction with amyloid enhancing factor
# T1 sequence (P05367 20-94 limits assumed): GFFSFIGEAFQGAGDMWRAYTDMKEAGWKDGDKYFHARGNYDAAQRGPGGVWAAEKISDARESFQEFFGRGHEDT
# Protocol: Transgenic H2-L^d-huIL-6 Balb/c mice (H2/IL-6) constitutively express the human IL-6 transgene leading to chronic, severe inflammation and the overproduction of acute phase reactants, such as serum amyloid protein A, the precursor protein of systemic, inflammation-associated (AA) amyloidosis. Amyloid deposition was induced in 8–wk old female mice by IV injection of 100 μg of amyloid enhancing factor (AEF – an insoluble preparation of amyloid fibrils isolated from the spleen of mice with AA amyloidosis) suspended in sterile phosphate buffered saline (PBS)[34]. All animal procedures were performed in accordance with protocols approved by the University of Tennessee Animal Care and Use Committee. The University of Tennessee is an Association for Assessment and Accreditation of Laboratory Animal Care International (AAALAC-I) accredited institution.
# (§1) Dual-energy comparative uptake experiments were performed in individual AA mice (5 wk post amyloid induction with AEF) and wild type mice (n = 5 per group). All SPECT/CT imaging was performed using an Inveon trimodality SPECT/PET/CT platform[37] (Siemens preclinical, Knoxville, TN). Image data were acquired and reconstructed using Inveon Acquisition Workplace (IAW) ver. 2.0.
# For the comparison of ^125I-SAP and ^99mTc-p5+14, mice were administered ^125I-SAP (45 μCi, 8 μg) and 20 h thereafter received ^99mTc-p5+14 (110 μCi, 5 μg). Mice were euthanised 4 h after injection of the ^99mTc-p5+14. The image data for the low and high energy radionuclides were obtained sequentially by acquiring 60, 16-second projections in a total of 1.5 revolutions. A 1 mm-diameter aperture, five-pinhole (mouse whole body) collimator was used at 30 mm from the centre of the field of view. The image data in the appropriate energy window were reconstructed using a Maximum A Priori algorithm (MAP - 16 iterations, 6 subsets, β = 1) onto a matrix with x and y dimensions of 88 and z dimension of 312 and 0.5-mm isotropic voxels. Post hoc attenuation correction was then applied to reconstructed data using CT image data. Scatter correction was performed using a SPECT triple energy window (TEW) method.
# (§2) For comparison of the p5+14 and p5 peptides, mice were injected IV in the lateral tail vein with a mixture of ^125I-p5+14 (150 μCi, ~3 μg) and ^99mTc-p5 (300 μCi, ~8 μg) and the mice euthanised by an overdose of isoflurane anaesthetic 1 h post injection. Tissues were harvested at necropsy for biodistribution measurements. Organs were also harvested from mice injected with ^125I-SAP and ^99mTc-p5+14 after SPECT/CT imaging. A small volume of tissue from each mouse was placed into a tared plastic vial and weighed. The radioactivity in the low and high energy windows (^125I and ^99mTc, respectively) was measured using an automated Wizard 3 gamma counter (1480 Wallac Gamma Counter, Perkin Elmer) with a crossover correction from the high to low energy channel of 4.6%, applied manually. Biodistribution data were expressed as percent injected dose per gram (%ID/g) of tissue.
# Skewness and kurtosis statistics were used to assess the statistical assumption of normality for between-subjects comparisons and correlations. Any skewness or kurtosis statistic above an absolute value of 2.0 assumed a non-normal distribution. The assumption of homogeneity of variance was tested with Levene’s Test of Equality of Variances. Independent samples t-tests were used to compare p5+14 and SAP retention in amyloid laden organs (liver, spleen, pancreas, intestines and heart). Means and standard deviations were reported for the analyses. If a statistical assumption was violated, a non-parametric Mann-Whitney U test was used. Medians and interquartile ranges (IQR) were reported for non-parametric statistics. Pearson correlations were run to compare tissue biodistribution data (%ID/g) in all organs. […]
# [2] = system: amyloid-free organs of WT mice; assay: Dual-energy tissue biodistribution in amyloid-free WT mice; type: in vivo, mouse; conditions: n = 5, SAP 24 h and p5+14 4 h post injection
# Protocol: as §1
# For the comparison of ^125I-SAP and ^99mTc-p5+14, mice were administered ^125I-SAP (45 μCi, 8 μg) and 20 h thereafter received ^99mTc-p5+14 (110 μCi, 5 μg). Mice were euthanised 4 h after injection of the ^99mTc-p5+14. The image data for the low and high energy radionuclides were obtained sequentially by acquiring 60, 16-second projections in a total of 1.5 revolutions. […]
# as §2, with “Tissues were harvested at necropsy for biodistribution measurements. Organs were also harvested from mice injected with ^125I-SAP and ^99mTc-p5+14 after SPECT/CT imaging. A small volume of tissue from each mouse was placed into a tared plastic vial and weighed.” left out
# [3] = AA mice 5 wk post-AEF, n = 5, 125I-SAP 45 μCi, 8 μg, 24 h post injection, crossover-corrected
substance,measurement,setting,value
125I-SAP: purified human SAP radioiodinated with 125I,"Tissue biodistribution, heart, Mean ± SD",[1]; [3],0.7 ± 0.1 %ID/g
same,"Tissue biodistribution, intestine, Mean ± SD",[1]; [3],0.8 ± 1.1 %ID/g
same,"Tissue biodistribution, liver, Mean ± SD",[1]; [3],14.1 ± 3.5 %ID/g
same,"Tissue biodistribution, pancreas, Median (Interquartile range)",[1]; [3],0.7 (0.5)[3] %ID/g
same,"Tissue biodistribution, spleen, Mean ± SD",[1]; [3],23.8 ± 3.5 %ID/g
same,Uptake in the spleen as compared to 99mTc-p5+14,"[1]; AA mice, in each mouse studied, p < 0.001",~ 4 fold
same,Uptake by pancreatic AA amyloid,"[1]; AA mice, 125I-SAP, 24 h post injection",< 1 %ID/g
same,Retention in amyloid-free organs,[2],no retention
